According to publication PMC6886295, “The iron–sulfur‐containing HypC‐HypD scaffold complex of the [NiFe]‐hydrogenase maturation machinery is an ATPase” (FEBS Open Bio, 2019):

Tests used:
HypD = molecular target: T1, HypD (Escherichia coli, UniProt P24192, C41A); experiment: HPLC (ZIC-HILIC) ADP formation, specific activity; assay type: biochemical; conditions: 50 mM HEPES, 2 mM MgCl2, pH 7.4, 37 °C, 500 μM ATP; protein alone
T1 construct: Strep-tagged HypD (plasmid pIBA5hypDWT), [4Fe-4S] protein, overproduced and anaerobically purified from E. coli BEF314 (delta hypB-E)
T1 sequence (P24192 whole entry C41A): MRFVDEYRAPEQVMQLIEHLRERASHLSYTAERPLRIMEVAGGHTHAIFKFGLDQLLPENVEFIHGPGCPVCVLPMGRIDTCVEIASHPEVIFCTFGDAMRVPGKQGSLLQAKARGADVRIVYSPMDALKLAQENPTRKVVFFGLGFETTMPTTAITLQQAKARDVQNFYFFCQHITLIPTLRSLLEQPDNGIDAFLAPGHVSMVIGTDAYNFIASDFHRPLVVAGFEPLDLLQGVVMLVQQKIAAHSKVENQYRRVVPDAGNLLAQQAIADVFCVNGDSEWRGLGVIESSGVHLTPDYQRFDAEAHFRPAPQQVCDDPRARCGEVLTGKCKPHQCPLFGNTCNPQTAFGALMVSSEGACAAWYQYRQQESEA

[1] = substrate: Nc1ncnc2c1ncn2[C@@H]1O[C@H](COP(=O)(O)OP(=O)(O)OP(=O)(O)O)[C@@H](O)[C@H]1O; experiment: HPLC (ZIC-HILIC) ADP formation, Michaelis-Menten fit; assay type: biochemical, Escherichia coli; conditions: 50 mM HEPES, 2 mM MgCl2, pH 7.4, 37 °C, protein alone
Text: HPLC (ZIC-HILIC) ADP formation, Michaelis-Menten fit on HypC

[2] = substrate: Nc1ncnc2c1ncn2[C@@H]1O[C@H](COP(=O)(O)OP(=O)(O)OP(=O)(O)O)[C@@H](O)[C@H]1O; experiment: as above; assay type: biochemical, Escherichia coli; conditions: 50 mM HEPES, 2 mM MgCl2, pH 7.4, 37 °C, as-isolated complex
Text: HPLC (ZIC-HILIC) ADP formation, Michaelis-Menten fit on HypC-HypD complex

[3] = substrate: Nc1ncnc2c1ncn2[C@@H]1O[C@H](COP(=O)(O)OP(=O)(O)OP(=O)(O)O)[C@@H](O)[C@H]1O; experiment: as above; assay type: biochemical, Escherichia coli; conditions: 50 mM HEPES, 2 mM MgCl2, pH 7.4, 37 °C, protein alone; remark: listed apart in the source
Text: HPLC (ZIC-HILIC) ADP formation, Michaelis-Menten fit on HypD

[4] = substrate: Nc1ncnc2c1ncn2[C@@H]1O[C@H](COP(=O)(O)OP(=O)(O)OP(=O)(O)O)[C@@H](O)[C@H]1O; experiment: as above; assay type: biochemical, Escherichia coli; conditions: 50 mM HEPES, 2 mM MgCl2, pH 7.4, 37 °C, as-isolated complex; remark: listed apart in the source
Text: HPLC (ZIC-HILIC) ADP formation, Michaelis-Menten fit on HybG-HypD complex

[5] = substrate: Nc1ncnc2c1ncn2[C@@H]1O[C@H](COP(=O)(O)OP(=O)(O)OP(=O)(O)O)[C@@H](O)[C@H]1O; experiment: as above; assay type: biochemical, Escherichia coli; conditions: 50 mM HEPES, 2 mM MgCl2, pH 7.4, 37 °C, protein alone; remark: listed apart in the source
Text: HPLC (ZIC-HILIC) ADP formation, Michaelis-Menten fit on HybG

## Nc1ncnc2c1ncn2[C@@H]1O[C@H](COP(=O)(O)OP(=O)(O)OP(=O)(O)O)[C@@H](O)[C@H]1O [ATP]
HypD
  HPLC (ZIC-HILIC) ADP formation, specific activity: The HypDC41A variant on its own had an ATPase activity

B1: HypC (Escherichia coli K-12) (protein)
chain: CIGVPGQIRTIDGNQAKVDVCGIQRDVDLTLVGSCDENGQPRVGQWVLVHVGFAMSVINEAEARDTLDALQNMFDVEPDVGALLYGEEK
notes: Strep-tagged HypC (plasmid pIBA3hypCStrep), anaerobically purified from E. coli BEF314 (delta hypB-E)
[1]
  Km: 235.72 ± 71.15 µM
  Vmax: 0.234 µmol/min/mg

B2: HypC-HypD complex (Escherichia coli K-12) (protein)
chain 1: MRFVDEYRAPEQVMQLIEHLRERASHLSYTAERPLRIMEVCGGHTHAIFKFGLDQLLPENVEFIHGPGCPVCVLPMGRIDTCVEIASHPEVIFCTFGDAMRVPGKQGSLLQAKARGADVRIVYSPMDALKLAQENPTRKVVFFGLGFETTMPTTAITLQQAKARDVQNFYFFCQHITLIPTLRSLLEQPDNGIDAFLAPGHVSMVIGTDAYNFIASDFHRPLVVAGFEPLDLLQGVVMLVQQKIAAHSKVENQYRRVVPDAGNLLAQQAIADVFCVNGDSEWRGLGVIESSGVHLTPDYQRFDAEAHFRPAPQQVCDDPRARCGEVLTGKCKPHQCPLFGNTCNPQTAFGALMVSSEGACAAWYQYRQQESEA
chain 2: CIGVPGQIRTIDGNQAKVDVCGIQRDVDLTLVGSCDENGQPRVGQWVLVHVGFAMSVINEAEARDTLDALQNMFDVEPDVGALLYGEEK
notes: heterodimer, HypC Strep-tagged (pT7-7hypD-hypCStrep), anaerobically co-purified from E. coli MC4100 or BEF314
[2]
  Km: 143.48 ± 55.10 µM
  Vmax: 0.995 µmol/min/mg

B3: HypD (Escherichia coli K-12) (protein)
chain: MRFVDEYRAPEQVMQLIEHLRERASHLSYTAERPLRIMEVCGGHTHAIFKFGLDQLLPENVEFIHGPGCPVCVLPMGRIDTCVEIASHPEVIFCTFGDAMRVPGKQGSLLQAKARGADVRIVYSPMDALKLAQENPTRKVVFFGLGFETTMPTTAITLQQAKARDVQNFYFFCQHITLIPTLRSLLEQPDNGIDAFLAPGHVSMVIGTDAYNFIASDFHRPLVVAGFEPLDLLQGVVMLVQQKIAAHSKVENQYRRVVPDAGNLLAQQAIADVFCVNGDSEWRGLGVIESSGVHLTPDYQRFDAEAHFRPAPQQVCDDPRARCGEVLTGKCKPHQCPLFGNTCNPQTAFGALMVSSEGACAAWYQYRQQESEA
notes: Strep-tagged HypD (plasmid pIBA5hypDWT), [4Fe-4S] protein, overproduced and anaerobically purified from E. coli BEF314 (delta hypB-E)
[3]
  Km: 364.48 ± 100.16 µM
  Vmax: 0.398 µmol/min/mg

B4: HybG-HypD complex (Escherichia coli K-12) (protein)
chain 1: MRFVDEYRAPEQVMQLIEHLRERASHLSYTAERPLRIMEVCGGHTHAIFKFGLDQLLPENVEFIHGPGCPVCVLPMGRIDTCVEIASHPEVIFCTFGDAMRVPGKQGSLLQAKARGADVRIVYSPMDALKLAQENPTRKVVFFGLGFETTMPTTAITLQQAKARDVQNFYFFCQHITLIPTLRSLLEQPDNGIDAFLAPGHVSMVIGTDAYNFIASDFHRPLVVAGFEPLDLLQGVVMLVQQKIAAHSKVENQYRRVVPDAGNLLAQQAIADVFCVNGDSEWRGLGVIESSGVHLTPDYQRFDAEAHFRPAPQQVCDDPRARCGEVLTGKCKPHQCPLFGNTCNPQTAFGALMVSSEGACAAWYQYRQQESEA
chain 2: MCIGVPGQVLAVGEDIHQLAQVEVCGIKRDVNIALICEGNPADLLGQWVLVHVGFAMSIIDEDEAKATLDALRQMDYDITSA
notes: heterodimer, HybG Strep-tagged (hypDEFhybGStrep plasmid), anaerobically co-purified from E. coli MC4100; small amounts of HypE occasionally co-purify
[4]
  Km: 34.78 ± 8.77 µM
  Vmax: 1.42 µmol/min/mg

B5: HybG (Escherichia coli K-12) (protein)
chain: MCIGVPGQVLAVGEDIHQLAQVEVCGIKRDVNIALICEGNPADLLGQWVLVHVGFAMSIIDEDEAKATLDALRQMDYDITSA
notes: Strep-tagged HybG (plasmid pIBA3hybGWT), anaerobically purified from E. coli BEF314 (delta hypB-E)
[5]
  Km: 475.67 ± 29.91 µM
  Vmax: 0.56 µmol/min/mg
